Patent US20170333564A1 (UNIVERSITY OF ROCHESTER, published 2017)
No end group written: not given here. *: point of attachment. Myristoyl = CCCCCCCCCCCCCC(=O)*

Target: IRK (IR β-chain) immunoprecipitated from HEK cell lysates (UniProt P06213 763-1382, limits assumed)
Assay: cell-based or functional assay

IRK (IR β-chain) immunoprecipitated from HEK cell lysates, sequence (P06213 763-1382 limits assumed): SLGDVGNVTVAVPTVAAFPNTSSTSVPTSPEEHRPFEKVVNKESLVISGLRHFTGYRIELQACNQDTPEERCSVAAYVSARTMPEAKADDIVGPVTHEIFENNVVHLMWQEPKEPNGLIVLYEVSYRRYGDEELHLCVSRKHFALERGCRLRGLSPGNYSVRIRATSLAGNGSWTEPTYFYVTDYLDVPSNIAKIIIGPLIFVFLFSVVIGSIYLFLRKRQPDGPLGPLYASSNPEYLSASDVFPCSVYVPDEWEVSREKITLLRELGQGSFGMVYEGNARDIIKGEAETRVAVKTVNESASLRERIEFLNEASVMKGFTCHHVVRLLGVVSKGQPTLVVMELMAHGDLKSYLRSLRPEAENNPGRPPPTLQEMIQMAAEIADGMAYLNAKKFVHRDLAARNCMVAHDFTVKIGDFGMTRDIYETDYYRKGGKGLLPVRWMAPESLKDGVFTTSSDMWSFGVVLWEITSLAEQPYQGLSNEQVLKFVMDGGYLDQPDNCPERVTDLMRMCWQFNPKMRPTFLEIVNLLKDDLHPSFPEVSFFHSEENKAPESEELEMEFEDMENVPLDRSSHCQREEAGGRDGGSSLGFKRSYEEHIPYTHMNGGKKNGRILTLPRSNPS

kinase activity of IRK immunoprecipitated from HEK cells treated with 40 µM myristoylated peptide for 15 minutes, IRS peptide substrate: ~3 fold
Binder: Myristoyl-KYCCSRK (cysteine pairing not given here) [P2, myr-KYCCSRK (hBVR-based peptide)]
